Numbering of substitutions follows the chain as printed. Names and notes keep the numbering of the source.
Target: the molecule itself
Assay: crystal structure

B1: Cryptosporidium parvum glyceraldehyde 3-phosphate dehydrogenase, wild type (enzyme)
chain: MTATLGINGFGRIGRLVLRACMERNDITVVAINDPFMDVEYMAYLLKYDSVHGNFNGTVEVSGKDLCINGKVVKVFQAKDPAEIPWGASGAQIVCESTGVFTTEEKASLHLKGGAKKVIISAPPKDNVPMYVMGVNNTEYDPSKFNVISNASCTTNCLAPLAKIINDKFGIVEGLMTTVHSLTANQLTVDGPSKGGKDWRAGRCAGNNIIPASTGAAKAVGKVIPALNGKLTGMAIRVPTPDVSVVDLTCKLAKPASIEEIYQAVKEASNGPMKGIMGYTSDDVVSTDFIGCKYSSIFDKNACIALNDSFVKLISWYDNESGYSNRLVDLAVYVASRGL
notes: glyceraldehyde 3-phosphate dehydrogenase of Cryptosporidium parvum; Homotetramer; Crystallised as apoenzyme and, after incubation with 2 mM NAD, as holoenzyme; also called CpGAPDH; C. parvum GAPDH; source: E. coli, purified (Ni-NTA, SP Sepharose cation exchange, Superdex 200); not shown: His6, N-terminal, kept
stoichiometry N: 4

B2: Cryptosporidium parvum glyceraldehyde 3-phosphate dehydrogenase, C153S active site mutant (enzyme)
chain: B1 chain with C153S
notes: also called C153S mutant CpGAPDH; C153S CpGAPDH; source: E. coli, purified (Ni-NTA, SP Sepharose cation exchange, Superdex 200); not shown: His6, N-terminal, kept
stoichiometry N: 4

— PMC2662861, “An unexpected phosphate binding site in Glyceraldehyde 3-Phosphate Dehydrogenase: Crystal structures of apo, holo and ternary complex of Cryptosporidium parvum enzyme” (BMC Structural Biology, 2009)
